From PMC7898697

Target: triazole-linked ^triazole42Ub^me-ADPr (5), biotinylated (UniProt P0CG48)
Experiment: pull-down

mCherry-DupA-WT (from UniProt Q5ZTK7 1-301) (enzyme)
fold enrichment against biotinylated wild-type Ub or beads: > 10 fold
